The values below come from patent publication US20090226422, “Chemical Inhibitors of Inhibitors of Differentiation” (published 2009).

The target in data set [1] is T1, E47 (TCF3) (Homo sapiens, UniProt P15923-2 P15923-2:1-651).
T1 sequence: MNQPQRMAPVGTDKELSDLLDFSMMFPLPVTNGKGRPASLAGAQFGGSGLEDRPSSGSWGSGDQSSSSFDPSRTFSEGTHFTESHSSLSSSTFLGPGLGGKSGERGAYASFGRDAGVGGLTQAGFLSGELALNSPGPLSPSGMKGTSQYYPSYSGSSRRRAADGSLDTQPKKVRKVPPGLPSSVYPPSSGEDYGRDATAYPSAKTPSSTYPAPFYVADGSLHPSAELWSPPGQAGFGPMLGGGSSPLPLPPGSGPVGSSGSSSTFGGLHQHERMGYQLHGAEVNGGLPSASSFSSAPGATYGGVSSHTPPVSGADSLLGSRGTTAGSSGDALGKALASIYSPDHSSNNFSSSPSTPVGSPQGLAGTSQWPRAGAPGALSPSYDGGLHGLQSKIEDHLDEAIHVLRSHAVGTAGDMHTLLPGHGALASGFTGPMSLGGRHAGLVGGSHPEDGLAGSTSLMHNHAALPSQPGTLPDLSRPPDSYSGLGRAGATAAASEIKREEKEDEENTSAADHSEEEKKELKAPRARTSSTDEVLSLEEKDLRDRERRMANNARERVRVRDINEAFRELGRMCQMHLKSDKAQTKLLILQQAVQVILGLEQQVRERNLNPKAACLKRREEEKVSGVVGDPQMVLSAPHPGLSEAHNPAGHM
The data set is described as follows: EMSA; 5% non-denaturing PAGE, 30 min incubation; E47 homodimer shifts the probe. The following applies: tags: recombinant human E47; chain copies: 2 (homodimer, stated); label: 32P. How it is done: (§1) Gel shift assays were performed using the 376 small molecules identified in the in silico drug screen and peptide synthesis. The identified compounds were then dissolved in 5% DMSO to a concentration of […] and reacted in binding mixtures that contained E47, Id1 and Mck. As controls, recombinant human E47 was used in a standard binding reaction that contained ³²P labeled MCK double stranded oligonucleotides containing consensus E-Box response element (MCK-5′ TTGATCCCCCCAACACCTGCTGCCTGAAGCT (SEQ ID NO. 1)) and 100 ng of Id1 was added to a standard binding reaction using E47 and p32 labeled MCK. After 30 minutes of incubation, the reaction mixtures were resolved on a 5% non-denaturing polyacrylamide gel and autoradiographed.

Data set [2] concerns the target T2, E47 + Id1 (Homo sapiens, UniProt P15923-2;P41134 P15923-2:1-651,P41134:1-155).
T2 sequence 1: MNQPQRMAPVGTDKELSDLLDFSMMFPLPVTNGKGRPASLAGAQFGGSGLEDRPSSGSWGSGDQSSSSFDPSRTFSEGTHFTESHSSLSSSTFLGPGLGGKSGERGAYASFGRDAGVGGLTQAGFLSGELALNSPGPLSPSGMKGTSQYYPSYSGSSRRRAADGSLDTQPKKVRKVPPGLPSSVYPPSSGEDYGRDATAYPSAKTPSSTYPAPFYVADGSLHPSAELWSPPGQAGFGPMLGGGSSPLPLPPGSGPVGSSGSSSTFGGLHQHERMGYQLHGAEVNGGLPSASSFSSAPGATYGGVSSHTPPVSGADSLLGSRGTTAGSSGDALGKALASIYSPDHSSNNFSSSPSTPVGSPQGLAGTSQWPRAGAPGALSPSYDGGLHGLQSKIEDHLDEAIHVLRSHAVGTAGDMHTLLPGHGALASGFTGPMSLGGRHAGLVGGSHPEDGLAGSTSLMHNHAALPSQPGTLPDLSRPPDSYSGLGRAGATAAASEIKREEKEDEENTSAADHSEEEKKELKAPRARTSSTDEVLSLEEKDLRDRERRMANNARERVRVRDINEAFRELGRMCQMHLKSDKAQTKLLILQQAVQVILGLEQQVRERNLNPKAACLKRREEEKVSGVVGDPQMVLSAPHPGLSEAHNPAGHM
T2 sequence 2: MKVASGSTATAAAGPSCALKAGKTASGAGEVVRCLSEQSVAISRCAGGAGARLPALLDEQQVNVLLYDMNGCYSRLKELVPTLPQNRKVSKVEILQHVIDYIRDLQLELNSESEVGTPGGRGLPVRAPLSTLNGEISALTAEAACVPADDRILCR
The data set can be described thus: EMSA; Id1 (100 ng) added to E47 prevents E47 binding to MCK; binding restored by small-molecule Id inhibitors (100 uM, 5% DMSO). The following applies: tags: recombinant human E47 mixed with recombinant human Id1 (100 ng); label: 32P. How it is done:
as §1
(Mobility shift assays separate free from complexed probe on a gel.)

B1: MCK E-box oligonucleotide (dsDNA)
DNA 1: TTGATCCCCCCAACACCTGCTGCCTGAAGCT
DNA 2: AGCTTCAGGCAGCAGGTGTTGGGGGGATCAA
In the case of B1, the binding result in data set [1] was “binds”; in data set [2], “no binding”.
